In PMC2757917, “Mutations in the DNA-Binding Domain of NR2E3 Affect In Vivo Dimerization and Interaction with CRX” (PLoS ONE, 2009):

Biological target: the molecule itself
Experiment: native gel or EMSA; total protein extracts of transfected HEK293T cells on an 8% PAA-gel under non-denaturing conditions, Western blot with an anti-NR2E3 antibody

B1: human NR2E3 wild-type protein (pcDNA3.1/HisC-hNR2E3) (natural protein)
chain: not shown
notes: NR2E3 (PNR), photoreceptor-specific nuclear receptor, human, SwissProt Q9Y5X4; band of 45 kDa on the denaturing gel; also called PNR; pcDNA-NR2E3-His/C; source: HEK293T, transiently transfected, in lysate
  stoichiometry N: 2
